As usually defined, the Kd is a measure of binding affinity in units of concentration. Low values mean higher affinity, high ones lower affinity. By EC50 (read off the curve) is commonly meant the midpoint of the concentration-response curve. Lower therefore signals an effect from little substance. By kon is commonly meant the second-order rate constant of association.

Assay [1] concerns the target T1, Human CD16A 158V, His tagged (R&D Systems) (human, UniProt P08637 17-208).
T1 construct: Bought (R&D Systems); also called CD16-His tagged molecules; not shown: His tag
In words: SPR (ProteOn); CD16-His immobilized via anti-PentaHis, diabody passed over. The method, then:
(§1) A ProteOn analysis was conducted to assess the binding of the CD16 Binding Domains of the constructed diabodies to CD16-His tagged molecules (R&D Systems) that had been immobilized on a chip. The CD16 molecules were immobilized via an anti-PentaHis antibody, followed by incubation incubation with the diabodies.

For assay [2], the target named is T2, Human CD16B, His tagged (R&D Systems) (human, UniProt O75015 17-200).
T2 construct: Bought (R&D Systems); also called CD16-His tagged molecules; not shown: His tag
T2 sequence (O75015 17-200 limits assumed): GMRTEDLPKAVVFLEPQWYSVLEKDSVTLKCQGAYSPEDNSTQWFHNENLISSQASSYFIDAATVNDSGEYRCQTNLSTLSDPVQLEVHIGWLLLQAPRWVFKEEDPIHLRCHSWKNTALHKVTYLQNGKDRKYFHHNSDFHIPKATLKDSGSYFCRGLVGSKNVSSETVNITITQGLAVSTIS
The description is as above. How it is done:
as §1

The target of assay [3] is T3, Human CD16A V158F, His tagged (R&D Systems) (human, UniProt P08637 17-208).
T3 construct: Bought (R&D Systems); also called CD16-His tagged molecules; not shown: His tag
T3 sequence (P08637 17-208 limits assumed, stated change not applied): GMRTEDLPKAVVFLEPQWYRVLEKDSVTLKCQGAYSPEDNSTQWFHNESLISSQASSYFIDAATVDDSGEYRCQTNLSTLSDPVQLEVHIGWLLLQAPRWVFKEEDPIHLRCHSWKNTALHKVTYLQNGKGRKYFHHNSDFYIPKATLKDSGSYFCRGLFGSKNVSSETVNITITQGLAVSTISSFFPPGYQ
The assay is described as above. How it is done: as §1

Assay [4] deals with T4, Human CD16A 158F (labeled with Avitag) (human, UniProt P08637 17-208).
T4 construct: also called human CD16A V/F molecules; not shown: Avitag
T4 sequence (P08637 17-208 limits assumed): as the sequence (P08637 17-208 limits assumed, stated change not applied) above
The assay can be described thus: SPR (BIACORE); diabody captured on goat F(ab')2 anti-human Fc, CD16A-Avitag passed over; 1:1 fit.

For assay [5], the target named is T5, Human CD16A 158V (labeled with Avitag) (human, UniProt P08637 17-208).
T5 construct: also called human CD16A V/F molecules; CD16 158V allotype; not shown: Avitag
T5 sequence (P08637 17-208 F176V limits assumed): as the sequence (P08637 17-208 limits assumed, stated change not applied) above, with F160V counted along it
The assay is described as above.

Assay [6] has as its target T6, human CD16A on the surface of NK cells (human, UniProt P08637 17-254).
T6 construct: whole, on cells; also called CD16A-expressing cells of the gated lymphocyte population; human CD16 on NK cells
The assay can be described thus: flow cytometry, whole blood of donor D48353, gated lymphocyte population: αhFc APC (% positive). In general terms: Flow cytometry measures light scatter and fluorescence of single cells or particles in a stream.

In assay [7] the target is T6, human CD16A on the surface of NK cells. In words: flow cytometry, whole blood of donor D59780, NK cells: CD56 APC / αhFc PE double-positive cells (%). The method, then: Following incubation, the cells were labled with: anti-CD56-allophycocyanin (CD56 APC, NK cell marker), anti-CD66b-fluorescein isothiocyanate (CD66b FITC, neutrophil cell marker) and anti-CD3-peridinin chlorophyll protein-Cy5.5 (CD3 PerCP Cy5.5, T-cell marker), and anti-humanFc-Phycoerythrin (αhFc PE) to detect diabody binding and the cell surface. The labeled cells were analyzed by flow cytometry gated on NK cells.

Assay [8] concerns the target T7, human CD16B of neutrophils (human, UniProt O75015 17-200).
T7 construct: whole, on cells; also called CD16B-expressing cells of the gated granulocyte population
In words: flow cytometry, whole blood of donor D48353, gated granulocyte population (CD66b PerCP Cy5.5): αhFc APC (% positive).

Assay [9] has as its target T7, human CD16B of neutrophils. In words: flow cytometry, whole blood of donor D59780, neutrophils: CD66b FITC / αhFc PE double-positive cells (%).

T1 sequence (P08637 17-208 F176V limits assumed): as the sequence (P08637 17-208 limits assumed, stated change not applied) above, with F160V counted along it
T6 sequence (P08637 17-254): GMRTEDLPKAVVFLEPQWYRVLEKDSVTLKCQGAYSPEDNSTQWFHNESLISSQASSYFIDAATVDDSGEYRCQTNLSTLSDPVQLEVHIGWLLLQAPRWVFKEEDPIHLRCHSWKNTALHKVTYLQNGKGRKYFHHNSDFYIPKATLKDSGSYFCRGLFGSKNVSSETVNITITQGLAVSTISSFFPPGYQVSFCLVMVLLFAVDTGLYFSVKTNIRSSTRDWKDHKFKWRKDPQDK
T7 sequence (O75015 17-200): as the sequence (O75015 17-200 limits assumed) above

B1: DART-H (bispecific antibody)
chain 1: DIVMTQSPDSLAVSPGERATIHCKSSQTLLYSSNNRHSIAWYQQRPGQPPKLLLYWASMRLSGVPDRFSGSGSGTDFTLTINNLQAEDVAIYYCHQYSSHPPTFGHGTRVEIKGGGSGGGGEVQLVESGGGLVKPGGSLRLSCAASGFTFSNYGMSWVRQAPGKGLEWVATISGGGSYTFYPDSVKGRFTISRDNAKNSLYLQMNSLRTEDTALYYCVRQSARAPEPYWGQGTLVTVSSASTKGEVAACEKEVAALEKEVAALEKEVAALEKGGGDKTHTCPPCPAPEAAGGPSVFLFPPKPKDTLMISRTPEVTCVVVDVSHEDPEVKFNWYVDGVEVHNAKTKPREEQYNSTYRVVSVLTVLHQDWLNGKEYKCKVSNKALPAPIEKTISKAKGQPREPQVYTLPPSREEMTKNQVSLWCLVKGFYPSDIAVEWESNGQPENNYKTTPPVLDSDGSFFLYSKLTVDKSRWQQGNVFSCSVMHEALHNHYTQKSLSLSPGK
chain 2: DIQMTQSPSFLSASVGDRVTITCRASQNVGTHVAWYQQKPGKAPKSLLYSASYRYSGVPSRFSGSGSGTDFTLTISSLQSEDIATYYCQQYKSYPLTFGQGTKLEIKGGGSGGGGQVQLVQSGGGVFKPGGSLRLSCEASGFTFTEYYMTWVRQAPGKGLEWLAYISKNGEYSKYSPSSNGRFTISRDNAKNSVFLQLDRLSADDTAVYYCARADGLTYFSELLQYIFDLWGQGARVTVSSASTKGKVAACKEKVAALKEKVAALKEKVAALKE
chain 3: not shown
notes: Three-chain diabody; hCD16-M1 x 7B2
As for B1, the Kd is 0.1 nM in [1], 0.4 nM in [2] and 0.04 nM in [3].

B2: DART-Z (bispecific antibody)
chain 1: QSALTQPPSASGSPGQSVTISCTGTSSDVGGYNYVSWYQHHPGKAPKLIISEVNNRPSGVPDRFSGSKSGNTASLTVSGLQAEDEAEYYCSSYTDIHNFVFGGGTKLTVLGGGSGGGGEEVQLVQSGAEVKKPGESLKVSCKASGYTFTSYYMHWVRQAPGQGLEWMGIINPSGGSTSYAQKFQGRVTMTRDTSTSTVYMELSSLRSEDTAVYYCARGSAYYYDFADYWGQGTLVTVSSASTKGEVAACEKEVAALEKEVAALEKEVAALEK
chain 2: QPVLTQPSSVSVAPGQTATISCGGHNIGSKNVHWYQQRPGQSPVLVIYQDNKRPSGIPERFSGSNSGNTATLTISGTQAMDEADYYCQVWDNYSVLFGGGTKLTVLGGGSGGGGQVQLQESGPGLVKPSQTLSLSCTVSGGSSSSGAHYWSWIRQYPGKGLEWIGYIHYSGNTYYNPSLKSRITISQHTSENQFSLKLNSVTVADTAVYYCARGTRLRTLRNAFDIWGQGTLVTVSSASTKGKVAACKEKVAALKEKVAALKEKVAALKE
notes: also called 4-LS21
Consider B2, for which the Kd amounted to 15.7 nM in [1] and 15.2 nM in assay [3].

B3: DART-F (bispecific antibody)
chain 1: QSALTQPPSASGSPGQSVTISCTGTSSDVGGYNYVSWYQHHPGKAPKLIISEVNNRPSGVPDRFSGSKSGNTASLTVSGLQAEDEAEYYCSSYTDIHNFVFGGGTKLTVLGGGSGGGGEVQLVESGGGLVKPGGSLRLSCAASGFTFSNYGMSWVRQAPGKGLEWVATISGGGSYTFYPDSVKGRFTISRDNAKNSLYLQMNSLRTEDTALYYCVRQSARAPEPYWGQGTLVTVSSASTKGEVAACEKEVAALEKEVAALEKEVAALEKGGGDKTHTCPPCPAPEAAGGPSVFLFPPKPKDTLMISRTPEVTCVVVDVSHEDPEVKFNWYVDGVEVHNAKTKPREEQYNSTYRVVSVLTVLHQDWLNGKEYKCKVSNKALPAPIEKTISKAKGQPREPQVYTLPPSREEMTKNQVSLWCLVKGFYPSDIAVEWESNGQPENNYKTTPPVLDSDGSFFLYSKLTVDKSRWQQGNVFSCSVMHEALHNHYTQKSLSLSPGK
chain 2: DIQMTQSPSFLSASVGDRVTITCRASQNVGTHVAWYQQKPGKAPKSLLYSASYRYSGVPSRFSGSGSGTDFTLTISSLQSEDIATYYCQQYKSYPLTFGQGTKLEIKGGGSGGGGQVQLQESGPGLVKPSQTLSLSCTVSGGSSSSGAHYWSWIRQYPGKGLEWIGYIHYSGNTYYNPSLKSRITISQHTSENQFSLKLNSVTVADTAVYYCARGTRLRTLRNAFDIWGQGTLVTVSSASTKGKVAACKEKVAALKEKVAALKEKVAALKE
chain 3: not shown
notes: Three-chain diabody; hCD16-M1 x A32; also called DART-F (hCD16-M1)
For B3, the Kd in assay [4] was 0.2 nM; in [5] it was 0.3 nM; in assay [1] it was 0.1 nM; in assay [2], 0.4 nM; in assay [3], 0.1 nM. Further, the “EC50 (read off the curve)” value was approximately 0.003 µg/mL in assay [6] and approximately 0.0002 µg/mL in [7].

B4: DART-G (bispecific antibody)
chain 1: QSALTQPPSASGSPGQSVTISCTGTSSDVGGYNYVSWYQHHPGKAPKLIISEVNNRPSGVPDRFSGSKSGNTASLTVSGLQAEDEAEYYCSSYTDIHNFVFGGGTKLTVLGGGSGGGGQVQLVQSGAEVKKPGASVKVSCKASGYTFTSSAMHWVRQAPGQGLEWMGYINHYNDGIKYNERFKGRVTITADKSTSTAYMELSSLRSEDTAVYYCATGYRYASWFASWGQGTLVTVSSASTKGEVAACEKEVAALEKEVAALEKEVAALEKGGGDKTHTCPPCPAPEAAGGPSVFLFPPKPKDTLMISRTPEVTCVVVDVSHEDPEVKFNWYVDGVEVHNAKTKPREEQYNSTYRVVSVLTVLHQDWLNGKEYKCKVSNKALPAPIEKTISKAKGQPREPQVYTLPPSREEMTKNQVSLWCLVKGFYPSDIAVEWESNGQPENNYKTTPPVLDSDGSFFLYSKLTVDKSRWQQGNVFSCSVMHEALHNHYTQKSLSLSPGK
chain 2: EIVLTQSPATLSVSPGERATLSCRASQNIGTSIHWYQQKPDQSPKLLIKSVSESISGVPSRFSGSGSGTDFTLTINSLEAEDFATYYCQQSNSWPLTFGQGTKLEIKGGGSGGGGQVQLQESGPGLVKPSQTLSLSCTVSGGSSSSGAHYWSWIRQYPGKGLEWIGYIHYSGNTYYNPSLKSRITISQHTSENQFSLKLNSVTVADTAVYYCARGTRLRTLRNAFDIWGQGTLVTVSSASTKGKVAACKEKVAALKEKVAALKEKVAALKE
chain 3: not shown
notes: Three-chain diabody; hCD16-M2 (VH1) x A32; also called DART-G (hCD16-M2)
For the molecule B4, the Kd in assay [4] came to 2.6 nM; in [5] it was 2.2 nM; in assay [1] it was 0.8 nM; in [2] it was 2.6 nM; in assay [3], 1.9 nM. The “EC50 (read off the curve)” value was approximately 0.03 µg/mL in [6], approximately 0.2 µg/mL in [8], approximately 0.008 µg/mL in [7] and approximately 0.1 µg/mL in [9].

B5: DART-4 (bispecific antibody)
chain 1: DIVMTQSPDSLAVSPGERATIHCKSSQTLLYSSNNRHSIAWYQQRPGQPPKLLLYWASMRLSGVPDRFSGSGSGTDFTLTINNLQAEDVAIYYCHQYSSHPPTFGHGTRVEIKGGGSGGGGQVTLRESGPALVKPTQTLTLTCTFSGFSLSTSGMGVGWIRQPPGKALEWLAHIWWDDDKRYNPALKSRLTISKDTSKNQVVLTMTNMDPVDTATYYCAQINPAWFAYWGQGTLVTVSSASTKGEVAACEKEVAALEKEVAALEKEVAALEKGGGDKTHTCPPCPAPEAAGGPSVFLFPPKPKDTLMISRTPEVTCVVVDVSHEDPEVKFNWYVDGVEVHNAKTKPREEQYNSTYRVVSVLTVLHQDWLNGKEYKCKVSNKALPAPIEKTISKAKGQPREPQVYTLPPSREEMTKNQVSLWCLVKGFYPSDIAVEWESNGQPENNYKTTPPVLDSDGSFFLYSKLTVDKSRWQQGNVFSCSVMHEALHNHYTQKSLSLSPGK
chain 2: DIVMTQSPDSLAVSLGERATINCKASQSVDFDGDSFMNWYQQKPGQPPKLLIYTTSNLESGVPDRFSGSGSGTDFTLTISSLQAEDVAVYYCQQSNEDPYTFGQGTKLEIKGGGSGGGGQVQLVQSGGGVFKPGGSLRLSCEASGFTFTEYYMTWVRQAPGKGLEWLAYISKNGEYSKYSPSSNGRFTISRDNAKNSVFLQLDRLSADDTAVYYCARADGLTYFSELLQYIFDLWGQGARVTVSSASTKGKVAACKEKVAALKEKVAALKEKVAALKE
chain 3: not shown
Consider B5, for which the Kd in assay [1] stood at 23.3 nM; in [2] it was 7.8 nM; in assay [3] it was 76.8 nM. Further, the kon in assay [1] came out at 290000 M⁻¹ s⁻¹.

Source of the values: patent US20210171630A1 (MacroGenics, published 2021).
